Key:
Assay in all cases: cell-based or functional assay
[1] = biological target: FVIIa variant CB614 D196W/K197L (human) (UniProt P08709)
[2] = biological target: FVIIa variant CB694 K199E/K341Q (human) (UniProt P08709)
[3] = biological target: FVIIa variant CB560 K197L (human) (UniProt P08709)
[4] = biological target: FVIIa variant CB598 K197W (human) (UniProt P08709)
[5] = biological target: FVIIa variant CB688 K197E/K199E (human) (UniProt P08709)
[6] = biological target: FVIIa variant CB568 R290A (human) (UniProt P08709)
[7] = biological target: FVIIa variant CB697 R290N (human) (UniProt P08709)
[8] = biological target: FVIIa variant CB599 K197M (human) (UniProt P08709)
[9] = biological target: FVIIa variant CB638 K197L/K341Q (human) (UniProt P08709)
[10] = biological target: FVIIa variant CB589 D196R/K197M/K199E (human) (UniProt P08709)
[11] = biological target: FVIIa variant CB566 R290D (human) (UniProt P08709)
[12] = biological target: FVIIa variant CB700 R290M (human) (UniProt P08709)
[13] = biological target: FVIIa variant CB735 K341D (human) (UniProt P08709)
[14] = biological target: FVIIa variant CB592 M298Q (human) (UniProt P08709)
[15] = biological target: FVIIa variant CB699 R290K (human) (UniProt P08709)
[16] = biological target: FVIIa variant CB605 G237W (human) (UniProt P08709)
[17] = biological target: FVIIa variant CB596 K197V (human) (UniProt P08709)
[18] = biological target: FVIIa variant CB604 D196I (human) (UniProt P08709)
[19] = biological target: FVIIa variant CB608 G237V (human) (UniProt P08709)
[20] = biological target: FVIIa variant CB561 K197Y (human) (UniProt P08709)
[21] = biological target: FVIIa variant CB611 D196L/K197L (human) (UniProt P08709)
[22] = biological target: FVIIa variant CB693 K197E/K199E/G237V/M298Q/K341Q (human) (UniProt P08709)
[23] = biological target: FVIIa variant CB691 K197E/K199E/K341Q (human) (UniProt P08709)
[24] = biological target: FVIIa variant CB590 D196R/K197M/K199E/R290E (human) (UniProt P08709)
[25] = biological target: FVIIa variant CB603 D196L (human) (UniProt P08709)
[26] = biological target: FVIIa variant CB609 K341Q (human) (UniProt P08709)
[27] = biological target: FVIIa variant CB601 D196Y (human) (UniProt P08709)
[28] = biological target: FVIIa variant CB586 D196R/K197E/K199E (human) (UniProt P08709)
[29] = biological target: FVIIa variant CB594 V158D/E296V/M298Q/K337A (human) (UniProt P08709)
[30] = biological target: FVIIa variant CB567 R290E (human) (UniProt P08709)
[31] = biological target: FVIIa variant CB564 K199A (human) (UniProt P08709)

- TFPI fold resistance (fold vs wild-type FVIIa) [1]: < 0.3
- TFPI fold resistance (fold vs wild-type FVIIa) [2]: 19.1
- IC50 of TFPI inhibition of FVIIa/TF [3]: 1100 nM
- TFPI fold resistance (fold vs wild-type FVIIa) [3]: 16
- pIC50 of TFPI inhibition of FVIIa/TF [3]: 5.9
- TFPI fold resistance (fold vs wild-type FVIIa) [4]: < 0.3
- TFPI fold resistance (fold vs wild-type FVIIa) [5]: 2.1
- IC50 of TFPI inhibition of FVIIa/TF [6]: 200 nM
- TFPI fold resistance (fold vs wild-type FVIIa) [6]: 2.8
- pIC50 of TFPI inhibition of FVIIa/TF [6]: 6.7
- TFPI fold resistance (fold vs wild-type FVIIa) [7]: 1.5
- TFPI fold resistance (fold vs wild-type FVIIa) [8]: 0.3
- TFPI fold resistance (fold vs wild-type FVIIa) [9]: 39
- IC50 of TFPI inhibition of FVIIa/TF [10]: 44 nM
- TFPI fold resistance (fold vs wild-type FVIIa) [10]: 0.6
- pIC50 of TFPI inhibition of FVIIa/TF [10]: 7.4
- IC50 of TFPI inhibition of FVIIa/TF [11]: 240 nM
- TFPI fold resistance (fold vs wild-type FVIIa) [11]: 3.3
- pIC50 of TFPI inhibition of FVIIa/TF [11]: 6.6
- TFPI fold resistance (fold vs wild-type FVIIa) [12]: 1
- TFPI fold resistance (fold vs wild-type FVIIa) [13]: 148
- IC50 of TFPI inhibition of FVIIa/TF [14]: 35 nM
- TFPI fold resistance (fold vs wild-type FVIIa) [14]: 0.5
- pIC50 of TFPI inhibition of FVIIa/TF [14]: 7.5
- TFPI fold resistance (fold vs wild-type FVIIa) [15]: 0.6
- TFPI fold resistance (fold vs wild-type FVIIa) [16]: < 0.3
- TFPI fold resistance (fold vs wild-type FVIIa) [17]: 0.6
- TFPI fold resistance (fold vs wild-type FVIIa) [18]: < 0.3
- TFPI fold resistance (fold vs wild-type FVIIa) [19]: 0.8
- IC50 of TFPI inhibition of FVIIa/TF [20]: 110 nM
- TFPI fold resistance (fold vs wild-type FVIIa) [20]: 1.5
- pIC50 of TFPI inhibition of FVIIa/TF [20]: 7
- TFPI fold resistance (fold vs wild-type FVIIa) [21]: < 0.3
- TFPI fold resistance (fold vs wild-type FVIIa) [22]: 22.1
- TFPI fold resistance (fold vs wild-type FVIIa) [23]: 34.3
- IC50 of TFPI inhibition of FVIIa/TF [24]: 66 nM
- TFPI fold resistance (fold vs wild-type FVIIa) [24]: 0.9
- pIC50 of TFPI inhibition of FVIIa/TF [24]: 7.2
- TFPI fold resistance (fold vs wild-type FVIIa) [25]: < 0.3
- TFPI fold resistance (fold vs wild-type FVIIa) [26]: 12.2
- TFPI fold resistance (fold vs wild-type FVIIa) [27]: < 0.3
- IC50 of TFPI inhibition of FVIIa/TF [28]: 13 nM
- TFPI fold resistance (fold vs wild-type FVIIa) [28]: < 0.3
- pIC50 of TFPI inhibition of FVIIa/TF [28]: 7.9
- IC50 of TFPI inhibition of FVIIa/TF [29]: 22 nM
- TFPI fold resistance (fold vs wild-type FVIIa) [29]: 0.3
- pIC50 of TFPI inhibition of FVIIa/TF [29]: 7.7
- IC50 of TFPI inhibition of FVIIa/TF [30]: 440 nM
- TFPI fold resistance (fold vs wild-type FVIIa) [30]: 6.1
- pIC50 of TFPI inhibition of FVIIa/TF [30]: 6.4
- IC50 of TFPI inhibition of FVIIa/TF [31]: 68 nM
- TFPI fold resistance (fold vs wild-type FVIIa) [31]: 0.9
- pIC50 of TFPI inhibition of FVIIa/TF [31]: 7.2
Substance: Human Recombinant TFPI (R&D Systems) (from UniProt P10646 29-282)

From patent US20090098103A1
